Data: US11471494B2, “Microorganisms programmed to produce immune modulators and anti-cancer therapeutics in tumor cells” (Synlogic Operating Company, Inc., priority 2017, dated 2022)

Legend:
Conditions in all cases: supernatant
[1] = biological target: T1, mCD47 (Mus musculus, UniProt Q61735); experiment: SIRPα/CD47 ELISA binding assay of supernatants
T1 sequence (Q61735 19-303): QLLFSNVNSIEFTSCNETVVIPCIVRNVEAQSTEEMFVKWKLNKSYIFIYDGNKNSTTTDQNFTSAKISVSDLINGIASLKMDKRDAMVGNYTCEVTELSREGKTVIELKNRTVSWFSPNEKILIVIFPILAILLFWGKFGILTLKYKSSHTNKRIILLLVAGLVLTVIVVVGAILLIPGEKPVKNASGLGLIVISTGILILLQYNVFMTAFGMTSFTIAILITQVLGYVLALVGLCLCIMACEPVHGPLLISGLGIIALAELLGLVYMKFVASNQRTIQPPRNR

[2] = test system: anti-mSIRPα antibody; experiment: SIRPα/CD47 ELISA binding assay, detection by antibody
[3] = SIRPα/CD47 ELISA binding assay, control coatings

- ELISA signal, coating mCD47 [1]: 1.069
- ELISA signal, coating Anti-mSIRPα [2]: 0.829
- ELISA signal, coating IgG [3]: 0.056
- ELISA signal, coating PBS [3]: 0.059
B1: Secreted WT mSIRPα: wild type murine SIRPα secreted by engineered Nissle (SYN2996), in supernatant (protein)
chain: KELKVTQPEKSVSVAAGDSTVLNCTLTSLLPVGPIRWYRGVGPSRLLIYSFAGEYVPRIRNVSDTTKRNNMDFSIRISNVTPADAGIYYCVKFQKGSSEPDTEIQSGGGTEVYVLAKPSPPEVSGPADRGIPDQKVNFTCKSHGFSPRNITLKWFKDGQELHPLETTVNPSGKNVSYNISSTVRVVLNSMDVNSKVICEVAHITLDRSPLRGIANLSNFIRVSPTVKVTQQSPTSMNQVNLTCRAERFYPEDLQLIWLENGNVSRNDTPKNLTKNTDGTYNYTSLFLVNSSAHREDVVFTCQVKHDQQPAITRNHTVLGFAHSSDQGSMQTFPDNNATHNWN
modifications: left off: small tags and cut ends
